This data set is described as follows: soluble on expression in E. coli; label from the status in PepcDB or PDB records.
As to “VFIEERLEELSTFADSSDLTKIEYGNKKIGIITSGIAYNYAKEVIPDASFLKFGMSYPLPEEKIKEFVENCDKVYVFEELEPIFEQKIKSMGLNVIGKEIFPIIGELSSEIIRNALLNESKEVIDKFDELPQRPPVLCPGCHHRGPFYVLKKLKLHVAGDIGCYTLGGFGPLNAIDTTICMGASIGMAH”, the “soluble on expression in E. coli” value was “not soluble”.

With “RHAIAETLSQEIKQELKDLYMDKADFKVVFTKGKFNREGNETVAFHISTNPGEDFKPLVKVASGGELSRLMLAIKSAFSRREDKTSIVFDEVDTGVSGRVAQAIAQKIYKIGNHGQVLAISHIPQVIAISDYQYFIEKQSSKATTVSTVRLLNQEERIEEIAKML”, the “soluble on expression in E. coli” value is reported as “not soluble”.

“KAAPAEPATGPFNVSATSPVTGQNYQMSCTAHDHVMRCSGGNNAIVLLTPNPTGVVEEKTYEYALEGTVVLKNTAEVLEGLKPPNNDNPNNEYILLWFDNPMDVAGKHAGNRDQLSTKNVRYLSLGKKETTQYGPLPDTTGPWRQYVGKRIRLHVNSDNMRYPSDTGMPLGALRLEEAPDIRIEEL”: the “soluble on expression in E. coli” value is on record as “not soluble”.

As to “MPTNCAAAGCATTYNKHINISFHRFPLDPKRRKEWVRLVRRKNFVPGKHTFLCSKHFEASCFDLTGQTRRLKMDAVPTIFDFCTHI”, the “soluble on expression in E. coli” value was “soluble”.

As to “MTQNINQLAVNTIRTLSIDAINAANSGHPGLPMGAAPMAYALWANHLNHNPNHPKWFNRDRFVLSAGHGSSLLYSLLHLAGYDVSIDDLKNFRKLNSKTPGHPEFGHTSGVEATTGPLGQGIANAVGMAMAEAHLAAKFNKDGHSIIDHNTYALVGDGDLMEGVAYEAMSMEGVAYEAMSMAGHMKLGKLIVLYDSNEISLDGELNIAFSEDMQKRVESAHWQYVRVEDGNDVDAITKAIQLAKDNTDQPTLIEIRTVIGYGSPKVAGTNKAHGNPLGLEEATATKQVYGWHYEEDFFVPEEVTAHFNELKQKGIEKERGWNEQFNLYRESNPALADELEKAIIGEVLIEAKDILSFDSEKTISTRVASGEAINHYVKSIPSIFGGSADLSHSTMTDIKGEAVYAVESYAGRNIYFGVREHAMGAAANGLALHGGVKPFVSTFFVFNDYLRPSIRLAALQKLPVTYVFTHDSIAVGEDGPTHEPIEHLAALRAIPGLTVIRPSDANETASAWAYALQQTEGPVVLVLSRQNLPVFHETKANIENLSKGAYVLTQTNENPDVILIATGSEVSLAASAKAKLEEDNVSVRIVAMPSWELFDRQSKEYKESVLPSSVTKRVSLEMGVSLGWERYVGQEGNILSIETFGASGTGAEVMNLFGFTTENVVQITKNVLNS”, the “soluble on expression in E. coli” value is listed as “not soluble”.

For the sequence “MAEKKKDEKETKETENFILKLSAETVLFSNAKLGDEVTTTVLKMTNPTTDKCAFKVKCTSNDLFKIKTPVGYIKPDETIDIPLCHNPGKAIPENNKQYFAFYYIKTKEDGPARDAWKNHKPDGMKRIYISFKKGDEKGDEKKDEKKEEKKEEKKEEKKEDKKDDKKEAKKEEKKEEKKEEKKEEKKEEKKEEKKEEKNDENKEEKKEEKKDEKKEEKKVEEAKK”, the “soluble on expression in E. coli” value is listed as “soluble”.

Regarding “MKPICIIPARSGSKGLPDKNMLFLSGKPMIFHTIDAAIESGMFDKKDIFVSTDSELYREICLERGISVVMRKPELSTDQATSYDMLKDFLSDYEDNQEFVLLQVTSPLRKSWHIKEAMEYYSSHDVDNVVSFSEVEKHPSLFTTLSDEGYAIDMVGADKGYRRQDLQPLYYPNGAIFISNKETYLREKSFFTSRTYAYQMAKEFSLDVDTRDDFIHVIGHLFFDYAIREKENKVFYKEGYSRLFNREASKIILGDSKTISTSLESYHNYSQGGVTLATMLENLPNFLTANVTEAFVSIGVNDLITGYSVEEIFSNFQKLYSLLAENKIKMRLTTIAYTLFRETVNNADIEKINQWLTEFCYQNQIPLLDINRFLSKDGNLNYHLTSDGLHFTQEANDLLQSQYQLFVDEVKTLLEHHHHHH”, the “soluble on expression in E. coli” value is “soluble”.

Turning to “MSAPFEERSGVVPCGTPWGQWYQTLEEVFIEVQVPPGTRAQDIQCGLQSRHVALAVGGREILKGKLFDSTIADEGTWTLEDRKMVRIVLTKTKRDAANCWTSLLESEYAADPWVQDQMQRKLTLERFQKENPGFDFSGAEISGNYTKGGPDFSNLEK”, the “soluble on expression in E. coli” value is reported as “soluble”.

Turning to “MGAKDKATGKSWSDVQQRLQQFHSQEFLNSLRGTTQFAGTDYRSKDLTPKKSRLLADTISAVYLDGYES”, the “soluble on expression in E. coli” value is on record as “not soluble”.

With “MGSDKIHHHHHHMKLEELNSKYNAFITLHTIEEGNDKGKLKDVTFGIKDVILTKDVRTTAGSRVLENYVPQRNAYVVDAILREGGKIIGKTNTHEFALGATNTSSIGGPARNPVDPERISGGSSGGSAVAVKLDMVDVGIGTDTGGSVRIPSSLCGVIGFKPTTGLIPNDGVIPFSWSLDTVGIIVKDNIRLLRRVFDVVLPNEKRKVEIAKLRTRPRLGLFLFDDMEVSRILLKDIYAKLSSHFDIVEVDLPLLRQYGSKTRRTISLAEAASYHKDWISEYSDKYFKDTYTLLLDGMKISATDYIDALRHRRVLIEEYVKVFKNIDFILSPTTKIVAPRISDVISNPLQFREYLIANTELFNVVGAPSISVPFSTLNDLPAGLMISGELYKDGDLLEVAEYILNIVGKH”, the “soluble on expression in E. coli” value is given as “not soluble”.

Consider “MGHHHHHHSHGVSAAVTSMSVPTPIYQTSSGQYIAIAPNGALQLASPGTDGVQGLQTLTMTNSGSTQQGTTILQYAQTSDGQQILVPSNQVVVQTASGDMQTYQIRTTPSATSLPQTVVMTSPVTLTSQTTKTDDPQLKREIRLMKNREAARECRRKKKEYVKCLENRVAVLENQNKTLIEELKTLKDLYSNKS”, for which the “soluble on expression in E. coli” value is reported as “not soluble”.

On to “MPRIRCERCARPASHCLCALIPSLPSRTRVLVLQHPSEVGHALNTAGLAVLGLCNAELRVGERFAEETWRVPGYRACLLFPGEQARALAEMAAEAAGEPLLLVVPDGTWRKARKLLHLNPALAALPRVSLAEGMASRYRLRKAPGEGALSTIEAIAAALDELEAPRTHEALLKPFDALIEGQIAAMGEDTYRRNHLSQERRRRLEHHHHHH”, for which the “soluble on expression in E. coli” value is “soluble”.

In the case of “MFITFEGIDGSGKSTQIQLLAQYLEKRGKKVILKREPGGTETGEKIRKILLEEEVTPKAELFLFLASRNLLVTEIKQYLSEGYAVLLDRYTDSSVAYQGFGRNLGKEIVEELNDFATDGLIPDLTFYIDVDVETALKRKGELNRFEKREFLERVREGYLVLAREHPERIVVLDGKRSIEEIHRDVVREVKRRWKLDV”, the “soluble on expression in E. coli” value is reported as “soluble”.

Regarding “NMIKAAISRQREFLADASAVQFTRNDQGIAGALKKIGSNVQGSTLNTKASDEMSHMMFGQSKLSGFSGLFATHPPLDERIRRIEPNWDGSYAQHSHAQNTAFDNEQVSGFAVGGGSPASQSASPSEQLSETGQQLISQLPPELVDIAREPYSARFIAFALIFDGSDIQREMIKSYVPLASQSTLLPWLDYDLPLHLRFPLLELALPALKSLSEAQKISLCKVLRELSETDNQYSLAEWCVINLLEKQLLASFGFIKQHKSLKQLEESVFWLLRELAWVSHSQADKAQRAYHCALAHLGFPEVKLEPANSNWHLSRAALELLLQLKPNDRRMFVKACRLAIESDGEITVAEGEIYRVIACFLEVPEPPLTISG”, the “soluble on expression in E. coli” value was “not soluble”.

As to “MGHHHHHHSHMMQESGTETKSNGSAIQNGSGGSNHLLECGGLREGRSNGETPAVDIGAADLAHAQQQQQQWHLINHQPSRSPSSWLKRLISSPWELEVLQVPLWGAVAETKMSGPVCQPNPSPF”, the “soluble on expression in E. coli” value is listed as “not soluble”.

Consider “MKVMNIIHDSVVDGEGLRTVVFFAGCPHRCFGCHNPKSWNICNGTEMTVEEIVKEIASNPLTDVTFSGGDPFFQAAEVKKVAKAVKDLKKNLWMYTGYTLEEIQSSQNNDMIELLHYGDVLVDGRFEIGKKDLTLPFRGSSNQRIIRLKELEHHHHHH”, for which the “soluble on expression in E. coli” value is reported as “soluble”.

Consider “MDIKIIKDKKNPLLNRRELDFIVKYEGSTPSRNDVRNKLAAMLNAPLELLVIQRIKTEYGMQESKGYAKLYEDADRMKQVEQEYVLKRNAVPGSETEGEEALEHHHHHH”, for which the “soluble on expression in E. coli” value was “soluble”.

Consider “MPVERVIDRPTPEEHLLERILATENMDLAWKRVRANKGAPGVDGVTIDAFPERFRPLWGDIRASLATGTYQPQPVLRVEIPKPTGGTRPLGIPTVLDRLIQQATAQVLTPIFDPEFSASSFGFRPGRSAHNAVRQLREYLRQGYRIAVDIDLAKFFDTVNHDLLMTMVGRRVRDKRVLTLIGRYLRAGVEVDGRLEKTRMGVPQGGPLSPLLANILLDHLDKELESRGHKFVRYADDFVILVKSERAGERVMGSVRKYLTNKLKLTVNEDKSKVARSGDLSFLGFVFKGTKILWSDQAYKEFRRRVRKYTGRSWFVSMEYRLNKLSTYLRGWMGYFGIAEAYRDIPEIDGWIRRRVRLCYWKQWRWCRTKIRNLLKLGVQLGTSIRAGLNRNGPWAMSRRLAAQHGMTNQWLKDQGLVSVKELWVKIHYPATARLEHHHHHH”, for which the “soluble on expression in E. coli” value is recorded as “not soluble”.

“MGKGDPKKPRGKMSSYAFFVQTCREEHKKKHPDASVNFSEFSKKCSERWKTMSAKEKGKFEDMAKADKARYEREMKTYIPPKGETKKKFKDPNAPKRPPSAFFLFCSEYRPKIKGEHPGLSIGDVAKKLGEMWNNTAADDKQPYEKKAAKLKEKYEKDIAAYRAKGKPDAAKKGVVKAEKSKKKKEEEEDEEDEEDEEEEEDEEDEDEEEDDDDE”: the “soluble on expression in E. coli” value is listed as “soluble”.

Consider “MKVTITANAPLSAGAMAVKKEAENANVFAALLAHKQQELLPAGAETSLFQEESSKNKEPDWQNGGMETGAAGQPSSAEKKPAQIESLWLAPSIMTALAVAPISAAAGAPLLEADQQAEGKTSDHWTFPFVGAMNGEETIAAQPAADEAGFERAFITDGRKSGHIDAESGSPSSGKTGMFPPLLSDGDQRPFHEQGGNRTVVALPNEASPVRPAGEKDVSLPKRGDKGHGGEATPSFTTPPALLSPSSSSVGLVGEMPASAGGSVADQVAHALRSARWMKLPNGVMQLVIRLHPEHLGTVTVKMTEEGGKLAAKLLVANDAVKELLYAHLPQLAQQLDASSITVEKWTVWSDYDSPAMPPYSGNRQGGQQQGESRQKQKREPSSSFPFALDGIEADA”, for which the “soluble on expression in E. coli” value is “not soluble”.

On to “MKYWLYTSLFLALIFSFRSYANSDIWILIDTLEQRLSVMRGDKAQLAFNNIAIGRYGASSSRMKGDNQTPLGSFQISWIKQHHRYYRFFGVDFPNQEAADLALAEKRISRQAWLSITKAIESSRLPPQDTPLGGYIGIHGIGRGDRTVHARFNWTNGCVALTNAQIDELSSWIKIGTKVVIR”, for which the “soluble on expression in E. coli” value is listed as “not soluble”.

Take “GMTDTNLVEMRAIERMMFDYSYHLDMNHPEELAALFVEDCEVSYAPNFGATGRDAYKKTLEGIGTFFRGTSHHNSNICIDFVSETEANVRSVVLAIHRYTKERPDGILYGQYFDTVVKVDGQWKFKRRELRTTMTTDYHVRAANPIGRAE”: the “soluble on expression in E. coli” value is on record as “soluble”.

Take “MSRTVIRAQPFFLQAAPGSREQLANPRGFTTFVLEASWSTGLRLDTYVTRGLGDPEQIMREEFQGQYVFWDTDEYLDLIRWMRHYNVSHPGRPTLRFVGNDLGYPGPEAFDQVTSYVTAHRPGVAERIATLYAGLRPARSASAGAWMGQQLTKDLASRRAEAARAERALTLLCASGRPRGSAGRAYNWAVQNATAVAQSFTGYAFPDEEFPERMRYRDQAMADNTAWWLAHTNGRILLASNNGHVAYTSDNPQEFPEPVGAFLRKKLGRKYVSVGLTFSEGSLNALPDFTAGQPQKYAVDPAPAGHNEHTLDQVRHRDFALDLRTAPPAARAWLDTARPTRSYGLYWSDQDPETALGRSYDIVIHLHRVEAARLWAFTSVKDGQSYRLEHHHHHH”: the “soluble on expression in E. coli” value was “not soluble”.

Source of the values: the DeepSol protein solubility set.
